Data set [1] has as its target full-length TFPI (fl-TFPI, TFPI alpha) (Homo sapiens) (UniProt P10646). The experiment in a line: SPR. The settings on record: biotinylated, nucleotide sequence identical to BAX 499; ka 6.7e7 1/Ms, kd 6.6e-4 1/s; 37 C, HBS pH 7.4, 0.1% P20, 3 mM CaCl2; aptamer immobilized.
The target is the same in data set [2]. The experiment in a line: inhibition. Conditions: PEG.

Sequence of full-length TFPI (fl-TFPI, TFPI alpha) (Homo sapiens) (P10646 29-304): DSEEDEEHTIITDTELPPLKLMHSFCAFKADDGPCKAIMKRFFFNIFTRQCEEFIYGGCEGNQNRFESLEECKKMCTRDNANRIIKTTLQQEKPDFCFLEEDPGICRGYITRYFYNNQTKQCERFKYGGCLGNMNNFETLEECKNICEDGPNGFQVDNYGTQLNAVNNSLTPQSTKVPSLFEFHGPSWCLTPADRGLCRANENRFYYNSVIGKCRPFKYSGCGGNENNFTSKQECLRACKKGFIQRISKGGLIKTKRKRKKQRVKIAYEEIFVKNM

With ARC28635, in data set [1], the Kd is 0.015 nM.
The EC50 is the concentration that produces a half-maximal response. Consider BAX 499, for which the Kd in data set [2] (apparent Kd from relief of TFPI inhibition of TF/FVIIa, 12 nM TFPI, FXa independent, TFPI source not stated in this example) was 1.2 nM. The activity in data set [2] (aptamer giving about 50% recovery of extrinsic FXase activity with 3 nM TFPI, 75-80% recovery at saturation) was 50 nM. Moreover, the 50% effective concentration (EC50) in data set [2] (extrinsic tenase assay at 0.25 nM TFPI, maximal reversal 58% at 1000 nM, EC50 rises with TFPI level) was 12 nM.

Source of the values: US20130267584.
